Consider six molecules from publication PMC6943663, “A Single-Turnover Kinetic Study of DNA Demethylation Catalyzed by Fe(II)/α-Ketoglutarate-Dependent Dioxygenase AlkB”.

Series [1] has as its target T1, AlkB (Escherichia coli, UniProt P05050 1-216).
T1 sequence: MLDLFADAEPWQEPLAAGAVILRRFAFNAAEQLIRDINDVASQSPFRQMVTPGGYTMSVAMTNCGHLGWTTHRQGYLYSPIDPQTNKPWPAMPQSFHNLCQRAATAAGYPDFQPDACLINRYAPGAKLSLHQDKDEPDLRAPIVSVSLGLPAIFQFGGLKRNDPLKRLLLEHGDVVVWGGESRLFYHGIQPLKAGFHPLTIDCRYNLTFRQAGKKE
In words: stopped-flow FRET, global fit (enzyme-product complex); Fe(II), aKG; after turnover; 50 mM HEPES-KOH pH 7.5, 50 mM KCl, 10 mM MgCl2, 40 uM Fe(II), 1 mM aKG, 2 mM ascorbate (composition as given for the anaerobic runs); stopped-flow at 37 C; titration temperature not given in the material. Particulars: protein: recombinant, tags: His6, label: 5'-FAM.

For series [2], the target named is T1, AlkB. Nature of the series: stopped-flow FRET; Fe(II), aKG; 50 mM HEPES-KOH pH 7.5, 50 mM KCl, 10 mM MgCl2, 40 uM Fe(II), 1 mM aKG, 2 mM ascorbate (composition as given for the anaerobic runs); stopped-flow at 37 C; titration temperature not given in the material. The note with it: protein: recombinant; tags: His6; label: 5'-FAM, 3'-BHQ1 on strand 1; blunt.
Series [3] deals with T1, AlkB. In words: stopped-flow 2aPu fluorescence, global fit (enzyme-product complex); Fe(II), aKG; after turnover; 50 mM HEPES-KOH pH 7.5, 50 mM KCl, 10 mM MgCl2, 40 uM Fe(II), 1 mM aKG, 2 mM ascorbate (composition as given for the anaerobic runs); stopped-flow at 37 C; titration temperature not given in the material. Particulars: protein: recombinant, tags: His6, label: 2-aminopurine.

For series [4], the target named is T1, AlkB. Nature of the series: stopped-flow Trp fluorescence, from rate constants of steps 1-3; Fe(II), aKG; 50 mM HEPES-KOH pH 7.5, 50 mM KCl, 10 mM MgCl2, 40 uM Fe(II), 1 mM aKG, 2 mM ascorbate (composition as given for the anaerobic runs); stopped-flow at 37 C; titration temperature not given in the material. Particulars: protein: recombinant; tags: His6; single strand.

Turning to ACAGGATCCGGCATA (ssDNA) [ss15A_FRET (demethylated product of ss15m1A_FRET)], the Kd with AlkB [1] (3'-BHQ1, single strand) amounted to 310 nM.

B1: ds15m1A_FRET (dsDNA)
DNA 1: ACAGGATCCGGCATA
DNA 2: TATGCCGGATCCTGT
modifications: N1-methyladenine at position 6 of strand 1
B1: the binding result in the series with AlkB [2] is reported as “binds”.
ACAGGAACCGGCATA (ssDNA, 2-aminopurine at position 7 (written A)) [ss15A_2aPu (demethylated product of ss15m1A_2aPu)]: in the series with AlkB [3] (single strand), the equilibrium dissociation constant (Kd) turned out to be 2200 nM.

B2: ds15A_FRET (demethylated product of ds15m1A_FRET) (dsDNA)
DNA 1: ACAGGATCCGGCATA
DNA 2: TATGCCGGATCCTGT
For the molecule B2, in the series with AlkB [1] (3'-BHQ1 on strand 1, blunt), the Kd was 4400 nM.
As for ACAGGATCCGGCATA (ssDNA, N1-methyladenine at position 6) [ss15m1A], in the series with AlkB [4], the Kd came to 4.3 nM.

B3: ds15A_2aPu (demethylated product of ds15m1A_2aPu) (dsDNA)
DNA 1: ACAGGAACCGGCATA
DNA 2: TATGCCGGTTCCTGT
modifications: 2-aminopurine at position 7 of strand 1 (written A)
Take B3: in the series with AlkB [3] (blunt), the dissociation constant (Kd) is 1800 nM.

As a reminder, the Kd is the free concentration of one partner at which half of the binding sites on the other are occupied at equilibrium, for simple one-to-one binding.
